Test results as given in publication PMC3376730, “Crystal structure of Caulobacter crescentus polynucleotide phosphorylase reveals a mechanism of RNA substrate channelling and RNA degradosome assembly” (Open Biology, 2012).
Values belong to the binder of their own block, whether it stands above or below them.

B2: Caulobacter crescentus polynucleotide phosphorylase (enzyme, UniProt B8GWZ0 1-712, looked up)
chain: MFDIKRKTIEWGGKTLVLETGRIARQADGAVLATMGETVVLATAVFAKSQKPGQDFFPLTVNYQEKTFAAGKIPGGFFKREGRPSEKETLVSRLIDRPIRPLFVKGFKNEVQVVVTVLQHDLENDPDILGMVAASAALCLSGAPFMGPIGAARVGWVDGAYVLNPTLDEMKESKMDLVVAGTADAVMMVESEIQELSEEIVLGGVNFAHQQMQAVIDAIIDLAEHAAKEPFAFEPEDTDAIKAKMKDLVGADIAAAYKIQKKQDRYEAVGAAKKKAIAALGLSDENPTGYDPLKLGAIFKELEADVVRRGILDTGLRIDGRDVKTVRPILGEVGILPRTHGSALFTRGETQAIVVATLGTGDDEQFIDALEGTYKESFLLHYNFPPYSVGETGRMGSPGRREIGHGKLAWRALRPMLPTKEDFPYTIRLVSEITESNGSSSMATVCGSSLAMMDAGVPLVRPVSGIAMGLILEQDGFAVLSDILGDEDHLGDMDFKVAGTSEGLTSLQMDIKIAGITPAIMEQALAQAKEGRAHILGEMNKAMDAPRADVGDFAPKIETINIPTDKIREVIGSGGKVIREIVATTGAKVDINDDGVVKVSASDGAKIKAAIDWIKSITDEAEVGKIYDGKVVKVVDFGAFVNFFGAKDGLVHVSQISNERVAKPSDVLKEGQMVKVKLLGFDDRGKTKLSMKVVDQETGEDLSKKEAAAEEA
notes: polynucleotide phosphorylase, pnp gene (CC0034), amplified from genomic DNA of C. crescentus strain NA1000 with primers from the start codon to the stop codon; Two alternative constructs were made (GST-PNPase from pGEX-6p-1, GST cut off with PreScission protease; 6xHis-PNPase from pET-DUET); the two tags are not on one chain; also called PNPase; C. crescentus PNPase; source: E. coli, purified …

Tests used:
[1] = biological target: B2; experiment: crystal structure; apo-PNPase co-crystallised with the peptide at 2 : 1 molar excess; rhombohedral (R3) and hexagonal (P6_(3)) forms, sitting drop, 18°C; conditions: both partners purified
[2] = biological target: the molecule itself; experiment: as above
[3] = biological target: B2; experiment: native gel or EMSA; approximate fourfold molar excess of GST-peptide mixed with PNPase, 20 mM Tris–HCl pH 7.5, 200 mM NaCl, room temperature 10 min, 8 per cent non-denaturing PAGE; conditions: both partners purified
[4] = biological target: T1, PNPase (polynucleotide phosphorylase) (Caulobacter crescentus, UniProt Q9AC32 1-712); experiment: X-ray crystallography; co-crystallized with apo-PNPase; same cell and space group (P22121) as endogenous RNA complex; Crystals of RNA-bound PNPase: 24% w/v PEG 3350, 0.1 M bis-Tris pH 5.5, 0.1 M ammonium acetate, 18 C; conditions: protein: recombinant; tags: 6xHis N-terminal (pET-DUET) or N-terminal GST (pGEX-6p-1) removed with PreScission; chain copies: 3
T1 sequence: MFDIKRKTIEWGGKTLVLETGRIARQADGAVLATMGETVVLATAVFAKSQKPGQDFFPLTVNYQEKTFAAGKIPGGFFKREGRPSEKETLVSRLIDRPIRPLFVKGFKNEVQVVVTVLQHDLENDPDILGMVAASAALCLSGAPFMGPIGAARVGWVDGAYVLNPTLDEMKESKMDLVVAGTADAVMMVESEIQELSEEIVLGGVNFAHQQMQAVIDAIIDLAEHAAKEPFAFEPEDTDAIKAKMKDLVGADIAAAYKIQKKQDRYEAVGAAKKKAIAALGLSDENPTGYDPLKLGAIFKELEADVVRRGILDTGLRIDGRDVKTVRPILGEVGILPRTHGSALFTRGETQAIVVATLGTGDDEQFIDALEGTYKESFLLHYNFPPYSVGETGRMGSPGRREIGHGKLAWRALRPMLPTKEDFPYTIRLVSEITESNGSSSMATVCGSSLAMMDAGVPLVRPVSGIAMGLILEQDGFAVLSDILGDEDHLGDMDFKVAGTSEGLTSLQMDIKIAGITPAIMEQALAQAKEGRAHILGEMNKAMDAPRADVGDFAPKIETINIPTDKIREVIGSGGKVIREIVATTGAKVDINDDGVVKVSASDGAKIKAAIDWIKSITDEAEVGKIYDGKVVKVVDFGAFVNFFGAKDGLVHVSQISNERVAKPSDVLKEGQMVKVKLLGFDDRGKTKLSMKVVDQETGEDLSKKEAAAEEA

Binder: B2
stoichiometry N [2]: 3

Binder: GUUUAUUGCCGUUCUUGUUAUAUGCCUU (ssRNA) [27mer MicC portion RNA]
binding result [4]: binds

Second part, the binder after the results:

binding result [1]: binds
B1: C. crescentus PNPase recognition peptide from RNase E (EKPRRGWWRR) (peptide)
peptide: EKPRRGWWRR
notes: last 10 amino acids of C. crescentus RNase E; also called GWW peptide; RNase E recognition peptide; source: synthetic peptide (Cambridge Research Biochemicals)

binding result [3]: binds
B3: GST fused to the PNPase recognition peptide of RNase E (TAPPEKPRRGWWRR) (peptide)
chain: TAPPEKPRRGWWRR
notes: C-terminal PNPase recognition peptide of C. crescentus RNase E, encoded by the 3' end of the rne gene (cc1877); Cloned in pGEX-6p-1 through BamHI and XhoI; also called GST–GWW; GST–GWW peptide; source: E. coli, purified (glutathione sepharose); not shown: GST, N-terminal, kept
